90 substances from the supplement of paper PMC11502859 can be followed below.
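Note: lentiviral eGFP-IRES-mCherry reporter pool sorted by FACS 96 h post-transduction, gated on mCherry-high cells, Illumina read counts normalized per million, median across four biological replicates.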

This data set deals with HEK293T. The experiment in a line: median enrichment of reporter reads in eGFP-reduced (low/intermediate) vs eGFP-high sorted cells (eGFP-extension fusion abundance) (ratio); higher = stronger loss of eGFP-fusion protein abundance (more destabilising extension).
As to “GGGGQVTRSGLSFWGCRSTEPLTPVCPRSPNRCGSSSERLSVQAMGQDRKVPELGKPGCNFLLHPAPPEVLRRVFLGIVFCSC [JUP]”, the median enrichment came to 5.66.
With GGGSRSDQLIAHMLCLDME [HNRNPAB] the figure was 3.08; with GGGTGLTF [CARS], 0.299; with “GGLLALTLQPTLAVWPSPGSFPAPLPLFPVLLNSPSWRVQALGMGGTRPHSFHRALRPDTADQPHSAQEAASGVGAQRGTAAS [BAP1]”, 5.39.
With “GGLLPLGPLTLSGWWTTKYNPVYNLKIYFTFVLLYLFIKG [SMAD4]” the figure was 5.18; with “GGLLSVLGTPGPYRTRAAALSHPLGRRYGSSVPLASMWSGGDAAPVVGTSWGDPRPSLAGLSPVPISHSGPRADILIK [GUK1]”, 2.98; with “GGPMGMSMAQPSYTPPQMTPHPTQLRHGPPMHSYLPSHPHHPAMMMHGGPPTHPGMTMSAQSPTMLNSVDPNVGGQVMDIHAQ [MEIS2]”, 2.36.
GGPSV [NDUFV3]: the median enrichment was found to be 0.139.
As for “GGQCLPAPPLASSSAPRVPSVDPIRPAMASYSKMV [ACO2]”, the figure is 0.291; as for “GGQVAEGSGCRLLYPLCLKHPPHRALVFTRFVLDSLNGNRIPWLRAKTTTYQCPCPFQLTLSSLRSSLSLWKGHPSQGRNAWS [SLC13A5]”, 8.48; as for GGR [RGS21], 0.868.
With “GGRACTGATQPGLGAASPQPPRAKNLFIKECFGTL [LMNA]” the figure was 17.9.
Consider GGRVGHPKR [ZNF786], for which the median enrichment turned out to be 0.607.
For “GGTPEKMPGLIVPPQDMDSMWGQEGYLLPGKAISSSPVWGGMRPAPLVNTPFPRSSLPVLGGS [CIC]”, the median enrichment was 6.48.
With “GHACLPNTIWSWTTFDTNQSYWTRPLEDLKYTSHAVVYLGCDSLSNAALGKDESDLQGEKCNHTWAPVNYGTEGPNCSPKGAA [APOBEC2]” the figure was 3.91; with “GHAQAMNPQLSQMADRWSPAPIATCNSEKISLVTDQCHGGAC [SHISA3]”, 1.98.
With “GHPQDTPMWLLDNPRAAKSCFSSLAPQVLQDRALKATPNEFSGFRLWLQPNRTHFEHPDCIFAFRKLE [C5orf46]” the figure was 3.29; with “GHPTPVPWRGSGPTLHNCLSRTVQTKGPAWKE [SLC37A1]”, 2.83.
With GHSPLLVPH [TP53] the figure was 0.449; with GIIIISTCPQFLSQSPSILTCTHSDAD [TCHHL1], 3.49.
Regarding GISVSSLISGIFVDKIRRNSCNF [KATNAL1], the median enrichment came out at 2.39.
Regarding “GKSPVSQHRGAALHTCGETFPAGPRESDSKNNRCCFSRVM [HABP4]”, the median enrichment was determined as 8.99.
For the substance “GLKFCKVLRGPEHVSATRGSGQHCVLRLVSYLRLPSICVQRPRLQPSQHSAGSHAPCPHPGQQTPARVCAPSDCTPALITHRH [SLC29A4]”, the median enrichment came out at 5.42.
With GLLPVDEVSFL [ABCC5] the figure was 0.739; with GLPPWSLNPAPTSCLFS [PRDM10], 5.78; with GLPS [TMEM107], 0.716.
As for GMSFLDLH [LSM5], the figure is 0.489.
With GMSVVSCLQTPSPAQFI [SAMHD1] the figure was 1.45; with “GNHGARAARCVQRRAHRHHPHPDQPAYRGARAPLPEAAQGHQR [UCKL1]”, 0.821.
As to GNWD [PIK3C3], the median enrichment is 0.441.
As for GPPSTSQQQD [DENND5A], the figure is 0.577.
With “GPWDTAFSFARLSACRPGGEPGPANESLVYLGCNSLKVQSFGLQSCPGPGSPGHCCSPRPWALVFLQHHTCCPFSISVCVKGD [MYO1F]” the figure was 5.6.
As for “GQRQRVLPKPLLPLWMLSLTLTHHCASLQTPRAQDWARPRDSHPFPSWEELACLATDSVSSNWLKWALPRVQLCGFYHA [IQGAP3]”, the figure is 15.7.
Regarding “GRCSDASAGAGTPNPWLQNRDPHPDRGSSAFEGFQAGLCGTEAQRGPGTWQRWGREEIQLPSLLPLLLQVPSNQELYILLVPQ [CCDC86]”, the median enrichment worked out at 5.26.
With “GRGMASGREGGIVGGQGSGFGSRWEQGLVKLFVSGPQ [PAQR7]” the figure was 12.5.
With GRNQQSTSAGQQPREPLPTRIAGSVTEQAG [ETV6] the figure was 4.01; with “GRRADSLAAPVLSPAILPYQGHWPLPSLCEGYFL [CYP2C18]”, 17.
With “GRRWCFRTLSHSLPSSALCHSQPFQQPRQPLLRPFPQPDTHSH [AMOTL2]” the figure was 12.3.
In the case of GRTRRFNRASVVSPVGLQKSGAFAICLK, the median enrichment was 10.9.
As for “GSGLCLVLSLPGRCSTPYRGGQLRAWAASSWTQLSRSSCSAQGGHMSEPRSWTSTQEDASEGKEIFYGLRPECQY [KLRG2]”, the figure is 7.23; as for GSGP [LCE1D], 0.314; as for “GSPLCLGLLLPREFSPLTYPHLSGLTGRNHCTTERGWDGPASCLWEKTSCLGRGLCLVKVPTGNP [ITGAX]”, 5.38.
With “GSRGRGGESPPRPPLPSPPGSRGSGLGRLPIPLLQAALIPHRN [FBXO46]” the figure was 5.21; with GSSC [KRTAP13-1], 0.297; with “GSSTETGASSSSLGCGPSSRTRTSATSRASWRAWASARAASSLTASAASSAA [CCM2L]”, 13.6.
With GSVQGFLGPSCLS [KCNA10] the figure was 0.463.
As to GSYISPSIRGHTQESNFALLQALVEAA [ZNF337], the median enrichment was determined as 9.72.
With “GTHNLHLSGYYYRFLHAQSRRIWTQMVTITSWPTNKKVLTML [ZNF717]” the figure was 7.8; with GTLTV [ABCB1], 0.767; with “GTQSSLLAVDFPLLLEPPIKEIQRDSCRPEAEHTFMAGALRGVLDPAPGDTIHFYCFVVTRALQPVFLKNQGPLPPPLPWGET [PLOD1]”, 6.78.
With “GTSLALLTHPRNTISGTRAAPRTRGYSRHNLIERAPAALTSTAFDTYASLVLLLSSESSCAHAFSRMGSPLAVAASVLALASS [KIAA1522]” the figure was 6.48; with “GTSPAPLRTPPRLDGWAHASHWGPGSRRWAPTLGPRGAANHTGLRPSYPAPSPSTSTFTSPPFHFFLYVFFLLETDSIHIEYN [JUNB]”, 4.58.
Consider GVFDS [DDX50], for which the median enrichment was determined as 0.357.
For the substance “GVPAHSCGKGGEGRRARPEQGAGGRAQYLTRAAVLINVPMAGPRSEPASSATVTFSLRDGGGGSLSRWLSRPRSRPWVLSQLG [DUSP9]”, the median enrichment turned out to be 4.83.
For the substance GVPGHSGLVQTPLL [PAF1], the median enrichment was determined as 0.255.
With “GVSGGEERRADLGRALRTWPRARDSPGSSSPWQAQQHVPQIWKGLPLCQCLGGCHGCPHPLLSVCGVEEPTPASCQDHLGGHT [GPRC5C]”, the median enrichment is 1.27.
As for GVWLSHGIPGKGLTQ [PTPA], the figure is 2.08; as for GWGLQGRGLAPFSLSY [NR1H4], 13.8; as for “GWLPRPGRLLDILFWLNIVLWMVPQSGARILPRRKATNGSGNYIKPETLQQGENCAPGCLAQASLEPSKHFCPS [MAB21L3]”, 7.37.
As for GWVRISTTFLDTVK [HBS1L], the figure is 11.5; as for “GYSHPGTEKAADGDCLPQPQQHLGLQLLESYHPRRQAQPGRGEEWAVKMKPHAQSPPIPHAAPPQSQATSCLLLVGGGLLSPS [LGALS9]”, 3.94.
For “HFWGVTDFVHGFKVYFYGLVIAEFLFWGEGKGASPLLLALRPRRLLCAANCIYCDALVRAPLPTSPSQLWPQPLSLCCVEWTP [TSPYL2]”, the median enrichment came to 8.4.
With HHH [His03] the figure was 0.477.
As for HHHH [His04], the figure is 0.323; as for HHHHH [His05], 0.675.
With HHHHHH [His06] the figure was 0.337.
For HHHHHHH [His07], the median enrichment worked out at 0.367.
Consider HHHHHHHH [His08], for which the median enrichment was determined as 0.421.
Turning to HHHHHHHHH [His09], the median enrichment was determined as 0.435.
As for HHHHHHHHHH [His10], the figure is 0.464; as for “HLPIPASLARALLGPEQRRTCPTHTAIYSSRHRAPLPYSWSQQPGNGVALHWPLASTLSGAPAVGWGTPAKDQFGCLIPGAVT [CRHR2]”, 3.84; as for “HTTGQGCGAGAIPAPFPGPRGLGSLPSHPGLVPPGAPTVEIRRGWNGGRGGAGGPHPSAALGLGPHPSGGPEAGGGNPRGWLF [GNB2]”, 0.37.
With III [Ile03] the figure was 3.74; with IIII [Ile04], 11.9; with IIIII [Ile05], 8.97.
Turning to IIIIII [Ile06], the median enrichment is 8.61.
As for IIIIIII [Ile07], the figure is 11; as for IIIIIIII [Ile08], 5.38; as for IIIIIIIII [Ile09], 9.46.
As for IIIIIIIIII [Ile10], the figure is 6.67; as for “IPVPEHQIPRQLMRLAQCVTEAPGSQQSRAYSAHQAEQATGRDDASGQGSAGDRDYRPAVSGPLQRLPTQGLVGVKHDDNTYT [CCDC137]”, 0.864; as for “ITGTACLGTRFPPAAVTMVASTATPGVQSTAPCPPCVPRSRGSVHHSSPRWRAGLPGGSPVALPWLWGWRDLARMNPPVPGTL [PIGQ]”, 3.37.
Consider “IVGPKGKEGKSAPRLGPGTHTPPDHLGNSRALRSRMLTKSNIQSLVNQDAVSPSVWQSVALAAGKLKADFHSYVHVDIHFRSS [RNF150]”, for which the median enrichment turned out to be 4.94.
As for “IYPSPGSPGHSVLSKTRMWYQLWKRKVSCQQYLLPSRQPSQVRHLLRSHREPGVCTSWKSCHQPGHSSHRIDQRACFLIQENE [SPSB4]”, the figure is 7.01; as for “KAAWPQYGPLFAGFSSSLEPPSVGGPPISPLKPALLFWGDPLLLSFPKHGVPWPAFFLCLWWGWGGLFLLAPSGGGGQVTRSG [JUP]”, 4.75; as for KAGTDLGPKIPFQRN [RBMXL2], 0.175.
As to KAQKTEALLPLAGSRDI [PNMA5], the median enrichment is 0.301.
For KARFLAVQFLLKVPLFPKSNY [HBB], the median enrichment turned out to be 5.47.
With KCDKVQPSDLIIHKIIYT [ZNF679] the figure was 15.1; with “KCEACDKVSIWKSHLKDIGEFILERKLTNVRFLTRLGSDSHLEQHTGLHTGEKPYKCNECGKAFGKQSTLIHHQAIHGVGKLD [ZNF611]”, 6.92.
